Assay results taken from patent publication US20220402983A1 (Janssen / Centocor, published 2022).
Bridges are numbered along the chain shown (N, C = ends). [ ]: non-standard residue; d: D form. The star is where a group is joined. Trp(7-Me) = Cc1cccc2c(C[C@H](N)C(=O)O)c[nH]c12; 2Nal = N[C@@H](Cc1ccc2ccccc2c1)C(=O)O; AEF = NCCOc1ccc(C[C@H](N)C(=O)O)cc1; αMeF = C[C@](N)(Cc1ccccc1)C(=O)O; Cit = NC(=O)NCCC[C@H](N)C(=O)O; αMeL = CC(C)C[C@](C)(N)C(=O)O; Pen = CC(C)(S)[C@H](N)C(=O)O; αMeK = C[C@](N)(CCCCN)C(=O)O; Thp = NC1(C(=O)O)CCOCC1; Tfa = O=C(C(F)(F)F)*

B1: Compound No. 103 (peptide)
peptide: Ac-[Pen]NTWK(Tfa)[Pen][AEF][2Nal][αMeK]K(Ac)N[Thp]-NH2
modifications: disulfide 1-6
SMILES: CC(=O)NCCCC[C@H](NC(=O)[C@](C)(CCCCN)NC(=O)[C@H](Cc1ccc2ccccc2c1)NC(=O)[C@H](Cc1ccc(OCCN)cc1)NC(=O)[C@H]1NC(=O)[C@H](CCCCNC(=O)C(F)(F)F)NC(=O)[C@H](Cc2c[nH]c3ccccc23)NC(=O)[C@H]([C@@H](C)O)NC(=O)[C@H](CC(N)=O)NC(=O)[C@@H](NC(C)=O)C(C)(C)SSC1(C)C)C(=O)N[C@@H](CC(N)=O)C(=O)NC1(C(N)=O)CCOCC1
B2: Compound No. 106 (peptide)
peptide: Ac-[dR][Pen]NTWK(Ac)[Pen][AEF][2Nal][Thp]EN[αMeF]-NH2
modifications: disulfide 2-7
SMILES: CC(=O)NCCCC[C@@H]1NC(=O)[C@H](Cc2c[nH]c3ccccc23)NC(=O)[C@H]([C@@H](C)O)NC(=O)[C@H](CC(N)=O)NC(=O)[C@@H](NC(=O)[C@@H](CCCNC(=N)N)NC(C)=O)C(C)(C)SSC(C)(C)[C@@H](C(=O)N[C@@H](Cc2ccc(OCCN)cc2)C(=O)N[C@@H](Cc2ccc3ccccc3c2)C(=O)NC2(C(=O)N[C@@H](CCC(=O)O)C(=O)N[C@@H](CC(N)=O)C(=O)N[C@@](C)(Cc3ccccc3)C(N)=O)CCOCC2)NC1=O
B3: Compound No. 107 (peptide)
peptide: Ac-[Pen]NT[Trp(7-Me)]K(Ac)[Pen][AEF][2Nal][αMeK]K(Ac)N[Thp][dY]-NH2
modifications: disulfide 1-6
SMILES: CC(=O)NCCCC[C@@H]1NC(=O)[C@H](Cc2c[nH]c3c(C)cccc23)NC(=O)[C@H]([C@@H](C)O)NC(=O)[C@H](CC(N)=O)NC(=O)[C@@H](NC(C)=O)C(C)(C)SSC(C)(C)[C@@H](C(=O)N[C@@H](Cc2ccc(OCCN)cc2)C(=O)N[C@@H](Cc2ccc3ccccc3c2)C(=O)N[C@@](C)(CCCCN)C(=O)N[C@@H](CCCCNC(C)=O)C(=O)N[C@@H](CC(N)=O)C(=O)NC2(C(=O)N[C@H](Cc3ccc(O)cc3)C(N)=O)CCOCC2)NC1=O
B4: Compound No. 104 (peptide)
peptide: Ac-[Pen]NT[Trp(7-Me)][Cit][Pen][AEF][2Nal][αMeL]K(Ac)N[αMeF]-NH2
modifications: disulfide 1-6
SMILES: CC(=O)NCCCC[C@H](NC(=O)[C@](C)(CC(C)C)NC(=O)[C@H](Cc1ccc2ccccc2c1)NC(=O)[C@H](Cc1ccc(OCCN)cc1)NC(=O)[C@H]1NC(=O)[C@H](CCCNC(N)=O)NC(=O)[C@H](Cc2c[nH]c3c(C)cccc23)NC(=O)[C@H]([C@@H](C)O)NC(=O)[C@H](CC(N)=O)NC(=O)[C@@H](NC(C)=O)C(C)(C)SSC1(C)C)C(=O)N[C@@H](CC(N)=O)C(=O)N[C@@](C)(Cc1ccccc1)C(N)=O
B5: Compound No. 105 (peptide)
peptide: Ac-[dR][Pen]NTWK(Ac)[Pen][AEF][2Nal][Thp]EN[Thp]-NH2
modifications: disulfide 2-7
SMILES: CC(=O)NCCCC[C@@H]1NC(=O)[C@H](Cc2c[nH]c3ccccc23)NC(=O)[C@H]([C@@H](C)O)NC(=O)[C@H](CC(N)=O)NC(=O)[C@@H](NC(=O)[C@@H](CCCNC(=N)N)NC(C)=O)C(C)(C)SSC(C)(C)[C@@H](C(=O)N[C@@H](Cc2ccc(OCCN)cc2)C(=O)N[C@@H](Cc2ccc3ccccc3c2)C(=O)NC2(C(=O)N[C@@H](CCC(=O)O)C(=O)N[C@@H](CC(N)=O)C(=O)NC3(C(N)=O)CCOCC3)CCOCC2)NC1=O

Biological target: T1, human IL-23R (interleukin-23 receptor) (human, UniProt Q5VWK5 24-629)
T1 sequence (looked up): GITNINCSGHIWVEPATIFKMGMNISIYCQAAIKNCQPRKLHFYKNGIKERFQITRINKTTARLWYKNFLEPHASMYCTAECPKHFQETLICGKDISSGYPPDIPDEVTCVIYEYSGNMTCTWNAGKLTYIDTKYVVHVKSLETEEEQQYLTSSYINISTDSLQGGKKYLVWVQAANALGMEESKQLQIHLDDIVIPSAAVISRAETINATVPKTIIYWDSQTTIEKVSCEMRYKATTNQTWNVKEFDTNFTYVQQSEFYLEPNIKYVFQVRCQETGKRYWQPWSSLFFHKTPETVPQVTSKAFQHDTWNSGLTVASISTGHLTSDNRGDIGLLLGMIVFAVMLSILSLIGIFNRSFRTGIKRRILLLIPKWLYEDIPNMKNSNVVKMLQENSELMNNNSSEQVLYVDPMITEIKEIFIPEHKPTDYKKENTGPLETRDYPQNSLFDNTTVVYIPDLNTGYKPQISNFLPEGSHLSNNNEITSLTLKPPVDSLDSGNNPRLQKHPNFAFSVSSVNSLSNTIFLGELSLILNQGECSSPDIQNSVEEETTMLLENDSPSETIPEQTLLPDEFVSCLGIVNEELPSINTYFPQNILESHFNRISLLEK
Test: cell-based or functional assay

| Binder | PBMC pSTAT3 IC50 (nM) |
| --- | --- |
| B1 | 57 nM |
| B2 | 13 nM |
| B3 | 11 nM |
| B4 | 8.2 nM |
| B5 | 2.2 nM |
